Tests used:
CD20 on cells = target: T1, CD20 on cells (UniProt P11836 1-297, limits assumed); test: flow cytometry on cells, 2 µg/mL
T1 construct: whole, on cells
T1 sequence (looked up): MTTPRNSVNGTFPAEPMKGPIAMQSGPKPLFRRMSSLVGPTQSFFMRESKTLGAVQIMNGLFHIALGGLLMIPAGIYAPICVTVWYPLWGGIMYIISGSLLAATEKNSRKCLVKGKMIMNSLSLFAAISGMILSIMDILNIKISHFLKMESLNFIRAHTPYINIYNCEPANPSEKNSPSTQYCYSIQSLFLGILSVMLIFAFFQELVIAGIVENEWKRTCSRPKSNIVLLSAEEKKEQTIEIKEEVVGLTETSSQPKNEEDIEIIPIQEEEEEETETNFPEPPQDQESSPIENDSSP
Protocol: Stable cell lines overexpressing a cell-surface antigen of interest or human tumor cell lines were harvested from tissue culture flasks and resuspended in phosphate buffered saline (PBS) containing 5% fetal bovine serum (PBS/FBS). Prior to staining, human tumor cells were incubated on ice with (100 μl) human IgG at 5 μg/ml in PBS/FCS. 1−5×10⁵ cells were incubated with antibody or DVD-Ig (2 μg/mL) in PBS/FBS for 30-60 minutes on ice. […] After 30 minutes incubation on ice, cells were washed twice and resuspended in PBS/FBS. Fluorescence was measured using a Becton Dickinson FACSCalibur (Becton Dickinson, San Jose, Calif.).
The geometric mean is the n root of the multiplication product of n fluorescent signals (a1×a2×a3 . . . an). With log-transformed data the geometric mean is used to normalize the weighting of the data distribution.

Recombinant Human IL-1β [1] = target: T2, Recombinant Human IL-1β (human, UniProt P01584 117-269); test: direct bind ELISA
T2 construct: also called IL-1b; IL-1B
Protocol: (§1) Enzyme Linked Immunosorbent Assays to screen for antibodies that bind a desired target antigen were performed as follows. High bind ELISA plates (Corning Costar # 3369, Acton, Mass.) were coated with 100 μL/well of 10 μg/ml of desired target antigen (R&D Systems, Minneapolis, Minn.) or desired target antigen extra-cellular domain/FC fusion protein (R&D Systems, Minneapolis, Minn.) or monoclonal mouse anti-polyhistidine antibody (R&D Systems # MAB050, Minneapolis, Minn.) in phosphate buffered saline (10×PBS, Abbott Bioresearch Center, Media Prep# MPS-073, Worcester, Mass.) overnight at 4° C. Plates were washed four times with PBS containing 0.02% Tween 20. Plates were blocked by the addition of 300 μL/well blocking solution (non-fat dry milk powder, various retail suppliers, diluted to 2% in PBS) for ½ hour at room temperature. Plates were washed four times after blocking with PBS containing 0.02% Tween 20.
(§2) Plates were washed 4 times with PBS containing 0.02% Tween 20.
(§3) One hundred microliters of enhanced TMB solution (Neogen Corp. #308177, K Blue, Lexington, Ky.) was added to each well and incubated for 10 minutes at room temperature. The reaction was stopped by the addition of 50 μL 1N sulphuric acid. Plates were read spectrophotometrically at a wavelength of 450 nm.

Recombinant Human VEGF [2] = target: T3, Recombinant Human VEGF (human, UniProt P15692-4 27-191); test: direct bind ELISA
T3 construct: also called VEGF165
Protocol: as §1, §2, §3

Recombinant Human IL-1β [3] = target: T2, Recombinant Human IL-1β; test: cell-based or functional assay
Recombinant Human IL-1β [4] = target: T2, Recombinant Human IL-1β; test: Biacore SPR
Protocol: (§4) The BIACORE assay (Biacore, Inc, Piscataway, N.J.) determines the affinity of antibodies or DVD-Ig with kinetic measurements of on-rate and off-rate constants. Binding of antibodies or DVD-Ig to a target antigen (for example, a purified recombinant target antigen) is determined by surface plasmon resonance-based measurements with a BiacoreR 1000 or 3000 instrument (Biacore® AB, Uppsala, Sweden) using running HBS-EP (10 mM HEPES [pH 7.4], 150 mM NaCl, 3 mM EDTA, and 0.005% surfactant P20) at 25° C. All chemicals are obtained from Biacore® AB (Uppsala, Sweden) or otherwise from a different source as described in the text. For example, approximately 5000 RU of goat anti-mouse IgG, (Fcγ), fragment specific polyclonal antibody (Pierce Biotechnology Inc, Rockford, Ill.) diluted in 10 mM sodium acetate (pH 4.5) is directly immobilized across a CM5 research grade biosensor chip using a standard amine coupling kit according to manufacturer's instructions and procedures at 25 μg/ml. Unreacted moieties on the biosensor surface are blocked with ethanolamine. Modified carboxymethyl dextran surface in flowcell 2 and 4 is used as a reaction surface. Unmodified carboxymethyl dextran without goat anti-mouse IgG in flow cell 1 and 3 is used as the reference surface. For kinetic analysis, rate equations derived from the 1:1 Langmuir binding model are fitted simultaneously to association and dissociation phases of all eight injections (using global fit analysis) with the use of Biaevaluation 4.0.1 software. Purified antibodies or DVD-Ig are diluted in HEPES-buffered saline for capture across goat anti-mouse IgG specific reaction surfaces. Antibodies or DVD-Ig to be captured as a ligand (25 μg/ml) are injected over reaction matrices at a flow rate of 5 μl/min. The association and dissociation rate constants, kₒₙ (M⁻¹s⁻¹) and koff (s⁻¹) are determined under a continuous flow rate of 25 μl/min. Rate constants are derived by making kinetic binding measurements at different antigen concentrations ranging from […]. The equilibrium dissociation constant (M) of the reaction between antibodies or DVD-Igs and the target antigen is then calculated from the kinetic rate constants by the following formula: KD=koff/kₒₙ. Binding is recorded as a function of time and kinetic rate constants are calculated.

Recombinant Human VEGF [5] = target: T3, Recombinant Human VEGF; test: Biacore SPR
Protocol: as §4

[6] = target: T4, Recombinant Human TRANCE/RANKL/TNFSF 11 (human, UniProt O14788 69-317); test: direct bind ELISA
T4 construct: extracellular domain
T4 sequence (looked up): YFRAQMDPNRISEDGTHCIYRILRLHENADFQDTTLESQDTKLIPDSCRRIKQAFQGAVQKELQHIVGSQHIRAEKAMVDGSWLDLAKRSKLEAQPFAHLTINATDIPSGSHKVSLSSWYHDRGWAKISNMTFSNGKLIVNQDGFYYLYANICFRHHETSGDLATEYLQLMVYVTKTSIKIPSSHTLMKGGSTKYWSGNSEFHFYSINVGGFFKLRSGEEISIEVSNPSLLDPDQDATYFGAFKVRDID
Protocol: as §1, §2, §3

Recombinant Human SOST [7] = target: T5, Recombinant Human SOST (human, UniProt Q9BQB4 24-213); test: direct bind ELISA
T5 construct: also called SOST/His; Sclerostin
T5 sequence (looked up): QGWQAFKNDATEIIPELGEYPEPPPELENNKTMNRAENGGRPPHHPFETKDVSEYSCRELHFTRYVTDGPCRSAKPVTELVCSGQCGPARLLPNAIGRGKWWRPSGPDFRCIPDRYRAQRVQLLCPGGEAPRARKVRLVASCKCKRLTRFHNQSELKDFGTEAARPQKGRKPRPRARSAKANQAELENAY
Protocol: as §1, §2, §3

Recombinant Human SOST [8] = target: T5, Recombinant Human SOST; test: Biacore SPR
Protocol: as §4

Recombinant Human β-NGF [9] = target: T6, Recombinant Human β-NGF (human, UniProt P01138 122-241); test: direct bind ELISA
T6 sequence (P01138 122-241 limits assumed): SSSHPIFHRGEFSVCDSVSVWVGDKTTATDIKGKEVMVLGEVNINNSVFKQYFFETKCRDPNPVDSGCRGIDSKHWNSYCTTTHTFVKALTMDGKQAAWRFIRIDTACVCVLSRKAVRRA
Protocol: as §1, §2, §3

Recombinant Human β-NGF [10] = target: T6, Recombinant Human β-NGF; test: Biacore SPR
Protocol: as §4

Recombinant Human Dkk-1 [11] = target: T7, Recombinant Human Dkk-1 (human, UniProt O94907 32-266); test: direct bind ELISA
T7 construct: also called DKK-1/His
T7 sequence (looked up): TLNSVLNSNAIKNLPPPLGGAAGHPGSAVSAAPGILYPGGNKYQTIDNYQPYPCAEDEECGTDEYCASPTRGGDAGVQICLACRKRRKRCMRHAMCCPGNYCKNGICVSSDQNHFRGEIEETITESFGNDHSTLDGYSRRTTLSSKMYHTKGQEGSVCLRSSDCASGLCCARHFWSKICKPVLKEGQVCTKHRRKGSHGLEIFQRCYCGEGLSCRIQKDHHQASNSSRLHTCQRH
Protocol: as §1, §2, §3

Recombinant Human Dkk-1 [12] = target: T7, Recombinant Human Dkk-1; test: Biacore SPR
Protocol: as §4

B1: AB001 (antibody, human IgG1, kappa, V domains shown)
VH: QVQLQQPGAELVKPGASVKMSCKASGYTFTSYNMHWVKQTPGRGLEWIGAIYPGNGDTSYNQKFKGKATLTADKSSSTAYMQLSSLTSEDSAVYYCARSTYYGGDWYFNVWGAGTTVTVSA
VL: QIVLSQSPAILSPSPGEKVTMTCRASSSVSYIHWFQQKPGSSPKPWIYATSNLASGVPVRFSGSGSGTSYSLTISRVEAEDAATYYCQQWTSNPPTFGGGTKLEIKR
notes: vectors V1 (wild type hIgG1 constant) and V2 (kappa); also called anti-CD20 parent antibody
FACS Geometric Mean (CD20 on cells): 1350

B2: DVD124 (bispecific antibody, human IgG1, kappa)
heavy: not shown
light: DIQMTQSPSSLSASVGDRVTITCSASQDISNYLNWYQQKPGKAPKVLIYFTSSLHSGVPSRFSGSGSGTDFTLTISSLQPEDFATYYCQQYSTVPWTFGQGTKVEIKRTVAAPEIVLTQSPDFQSVTPKEKVTITCRASQSIGSSLHWYQQKPDQSPKLLIKYASQSFSGVPSRFSGSGSGTDFTLTINSLEAEDAAAYYCHQSSSLPFTFGPGTKVDIKRTVAAPSVFIFPPSDEQLKSGTASVVCLLNNFYPREAKVQWKVDNALQSGNSQESVTEQDSKDSTYSLSSTLTLSKADYEKHKVYACEVTHQGLSSPVTKSFNRGEC
notes: outer AB014, inner AB032; vectors V1, V2
EC50 (Recombinant Human IL-1β [1]): 459 nM | EC50 (Recombinant Human VEGF [2]): 3.49 nM | IL-1β Neutralization Assay EC50 (MRC5 cells, hIL-8) (Recombinant Human IL-1β [3]): 3.63 nM | Kd (Recombinant Human IL-1β [4]): 1.41 nM | koff (Recombinant Human IL-1β [4]): 9.32e-05 s⁻¹ | kon (Recombinant Human IL-1β [4]): 66000 M⁻¹ s⁻¹ | Kd (Recombinant Human VEGF [5]): 0.0467 nM | koff (Recombinant Human VEGF [5]): 4.03e-05 s⁻¹ | kon (Recombinant Human VEGF [5]): 863000 M⁻¹ s⁻¹

B3: DVD165 (bispecific antibody, human IgG1, kappa)
heavy: not shown
light: QIVLSQSPAILSPSPGEKVTMTCRASSSVSYIHWFQQKPGSSPKPWIYATSNLASGVPVRFSGSGSGTSYSLTISRVEAEDAATYYCQQWTSNPPTFGGGTKLEIKRTVAAPEIVLTQSPGTLSLSPGERATLSCRASQSVRGRYLAWYQQKPGQAPRLLIYGASSRATGIPDRFSGSGSGTDFTLTISRLEPEDFAVFYCQQYGSSPRTFGQGTKVEIKRTVAAPSVFIFPPSDEQLKSGTASVVCLLNNFYPREAKVQWKVDNALQSGNSQESVTEQDSKDSTYSLSSTLTLSKADYEKHKVYACEVTHQGLSSPVTKSFNRGEC
notes: vectors V1, V2; also called CD-20 and RANKL DVD-Ig
EC50 [6]: 0.32 nM | FACS Geometric Mean (CD20 on cells): 1890

B4: AB022 (antibody, human IgG1, kappa, V domains shown)
VH: EVQLQQSGPELVTPGASVKISCKASGYTFTDHYMSWVKQSHGKSLEWIGDINPYSGETTYNQKFKGTATLTVDKSSSIAYMEIRGLTSEDSAVYYCARDDYDASPFAYWGQGTLVTVSA
VL: DVQMIQSPSSLSASLGDIVTMTCQASQGTSINLNWFQQKPGKAPKLLIYGSSNLEDGVPSRFSGSRYGTDFTLTISSLEDEDLATYFCLQHSYLPYTFGGGTKLEIKR
notes: vectors V1 and V2
EC50 (Recombinant Human SOST [7]): 0.66 nM | Kd (Recombinant Human SOST [8]): 0.0379 nM | koff (Recombinant Human SOST [8]): 2.44e-05 s⁻¹ | kon (Recombinant Human SOST [8]): 642000 M⁻¹ s⁻¹

B5: AB020 (antibody, human IgG1, kappa, V domains shown)
VH: QVQLQESGPGLVKPSETLSLTCTVSGFSLIGYDLNWIRQPPGKGLEWIGIIWGDGTTDYNSAVKSRVTISKDTSKNQFSLKLSSVTAADTAVYYCARGGYWYATSYYFDYWGQGTLVTVSS
VL: DIQMTQSPSSLSASVGDRVTITCRASQSISNNLNWYQQKPGKAPKLLIYYTSRFHSGVPSRFSGSGSGTDFTFTISSLQPEDIATYYCQQEHTLPYTFGQGTKLEIKR
notes: vectors V1 and V2; also called anti-NGF parent antibody
EC50 (Recombinant Human β-NGF [9]): 9 nM | Kd (Recombinant Human β-NGF [10]): < 0.000926 nM | koff (Recombinant Human β-NGF [10]): < 1e-06 s⁻¹ | kon (Recombinant Human β-NGF [10]): 1.08e+06 M⁻¹ s⁻¹

B6: AB023 (antibody, human IgG1, kappa, V domains shown)
VH: EVQLVESGGGLVQPANSLKLSCAASGFTFSDYAMAWVRQSPKKGLEWVATIIYDGSSTYYRDSVKGRFTISRDNAKSTLYLQMDSLRSEDTATYYCATGLGIATDYFDYWGQGVLVTVSS
VL: DIRMTQSPASLSASLGETVNIECLASEDIYSDLAWYQQKPGKSPQLLIYNANSLQNGVPSRFSGSGSGTQYSLKINSLQSEDVATYFCQQYNNYPPTFGGGTKLELKR
notes: vectors V1 and V2; also called anti-DKK parent antibody
EC50 (Recombinant Human Dkk-1 [11]): 6.83 nM | Kd (Recombinant Human Dkk-1 [12]): < 0.0087 nM | koff (Recombinant Human Dkk-1 [12]): 8.7e-05 s⁻¹ | kon (Recombinant Human Dkk-1 [12]): > 1e+07 M⁻¹ s⁻¹
